Drawing on US20170290876A1 (Novartis, published 2017), this text covers Kd, koff and kon for 33 molecules.

Positions count from the first letter of the chain named. In names and notes the source's numbering stands.

What is called Kd is the concentration at which binding is half-saturated. A high value points to lower affinity. Usually koff stands for a measure of how fast the partners let go of each other. As a reminder, the kon is a measure of how fast the partners come together. A low value points to slower complex formation.

The chains are these.
B1: NVS4 heavy chain variant D56N (Fab, V domains shown)
VH: EVQLVESGGGLVQPGGSLRLSCTASGFSLTDYYYMTWVRQAPGKGLEWVGFIDPDNDPYYATWAKGRFTISRDNSKNTLYLQMNSLRAEDTAVYYCAGGDHNSGWGLDIWGQGTLVTVSS
VL: EIVMTQSPSTLSASVGDRVIITCQASEIIHSWLAWYQQKPGKAPKLLIYLASTLASGVPSRFSGSGSGAEFTLTISSLQPDDFATYYCQNVYLASTNGANFGQGTKLTVLK
notes: CDR variant of NVS4
B2: LC3T (Fab, V domains shown)
VH: B1 VH with N56D
VL: B1 VL with E27Q, I28K, L50Q, T53K, S56K, T96R
notes: Light chain CDR variant LC3 with tagged NVS4 heavy chain
B3: NVS4 heavy chain variant Y59H (Fab, V domains shown)
VH: B1 VH with N56D, Y59H
VL: B1 VL
notes: CDR variant of NVS4
B4: HC3T (Fab, V domains shown)
VH: B1 VH with D31N, D55Q, D57N, D100N
VL: B1 VL
notes: Tagged heavy chain CDR variant HC3 with NVS4 light chain
B5: HC1.1T (Fab, V domains shown)
VH: B1 VH with D31S, D55Q, D57N, D108N
VL: B1 VL
notes: Tagged heavy chain CDR variant HC1.1 with NVS4 light chain
B6: NVS4 heavy chain variant N102K (Fab, V domains shown)
VH: B1 VH with N56D, N102K
VL: B1 VL
notes: CDR variant of NVS4
B7: NVS4 heavy chain variant D100N + H101K (Fab, V domains shown)
VH: B1 VH with N56D, D100N, H101K
VL: B1 VL
notes: CDR variant of NVS4
B8: HC1.2T (Fab, V domains shown)
VH: B1 VH with D31S, D55Q, D57N
VL: B1 VL
notes: Tagged heavy chain CDR variant HC1.2 with NVS4 light chain
B9: NVS4 heavy chain variant H101K (Fab, V domains shown)
VH: B1 VH with N56D, H101K
VL: B1 VL
notes: CDR variant of NVS4
B10: HC6T (Fab, V domains shown)
VH: B1 VH with D31N, D55Q, D57Q, D100N, D108N
VL: B1 VL
notes: Tagged heavy chain CDR variant HC6 with NVS4 light chain
B11: NVS4 heavy chain variant D108N (Fab, V domains shown)
VH: B1 VH with N56D, D108N
VL: B1 VL
notes: CDR variant of NVS4
B12: NVS4 heavy chain variant Y59F (Fab, V domains shown)
VH: B1 VH with N56D, Y59F
VL: B1 VL
notes: CDR variant of NVS4
B13: NVS4 light chain variant I28K (Fab, V domains shown)
VH: B1 VH with N56D
VL: B1 VL with I28K
notes: CDR variant of NVS4
B14: NVS4 heavy chain variant D100N (Fab, V domains shown)
VH: B1 VH with N56D, D100N
VL: B1 VL
notes: CDR variant of NVS4
B15: LC5T (Fab, V domains shown)
VH: B1 VH with N56D
VL: B1 VL with E27Q, H30K, L50Q, S56K
notes: Light chain CDR variant LC5 with tagged NVS4 heavy chain
B16: HC4T (Fab, V domains shown)
VH: B1 VH with D31N, D55Q, D100N, D108N
VL: B1 VL
notes: Tagged heavy chain CDR variant HC4 with NVS4 light chain
B17: HC7T (Fab, V domains shown)
VH: B1 VH with D31K, D53K, D55K, N56D, D57K, Y60K
VL: B1 VL
notes: Tagged heavy chain CDR variant HC7 with NVS4 light chain
B18: HC2T (Fab, V domains shown)
VH: B1 VH with D31N, D55Q, D100N
VL: B1 VL
notes: Tagged heavy chain CDR variant HC2 with NVS4 light chain
B19: LC4T (Fab, V domains shown)
VH: B1 VH with N56D
VL: B1 VL with E27Q, I28K, L50Q, S56K
notes: Light chain CDR variant LC4 with tagged NVS4 heavy chain
B20: HC8T (Fab, V domains shown)
VH: B1 VH with D31K, D53K, N56K, D57K, Y59K
VL: B1 VL
notes: Tagged heavy chain CDR variant HC8 with NVS4 light chain
B21: NVS4 light chain variant H30K (Fab, V domains shown)
VH: B1 VH with N56D
VL: B1 VL with H30K
notes: CDR variant of NVS4
B22: NVS4 heavy chain variant Y34H (Fab, V domains shown)
VH: B1 VH with Y34H, N56D
VL: B1 VL
notes: CDR variant of NVS4
B23: NVS4 light chain variant S95K (Fab, V domains shown)
VH: B1 VH with N56D
VL: B1 VL with S95K
notes: CDR variant of NVS4
B24: NVS4 light chain variant T53K (Fab, V domains shown)
VH: B1 VH with N56D
VL: B1 VL with T53K
notes: CDR variant of NVS4
B25: LC1T (Fab, V domains shown)
VH: B1 VH with N56D
VL: B1 VL with E27Q, L50Q, S56K
notes: Light chain CDR variant LC1 of NVS4 with tagged NVS4 heavy chain
B26: NVS4 heavy chain variant D57N (Fab, V domains shown)
VH: B1 VH with N56D, D57N
VL: B1 VL
notes: CDR variant of NVS4
B27: NVS4 light chain variant T96R (Fab, V domains shown)
VH: B1 VH with N56D
VL: B1 VL with T96R
notes: CDR variant of NVS4
B28: NVS4 heavy chain variant D108Q (Fab, V domains shown)
VH: B1 VH with N56D, D108Q
VL: B1 VL
notes: CDR variant of NVS4
B29: LC7T (Fab, V domains shown)
VH: B1 VH with N56D
VL: B1 VL with E27Q, I28K, H30K, S56K, T96R
notes: Light chain CDR variant LC7 with tagged NVS4 heavy chain
B30: HC1T (Fab, V domains shown)
VH: B1 VH with D31S, D55Q, D57N, D100S, D108N
VL: B1 VL
notes: Tagged heavy chain CDR variant HC1 with NVS4 light chain
B31: LC6T (Fab, V domains shown)
VH: B1 VH with N56D
VL: B1 VL with E27Q, L50Q, S56K, T96R
notes: Light chain CDR variant LC6 with tagged NVS4 heavy chain
B32: LC2T (Fab, V domains shown)
VH: B1 VH with N56D
VL: B1 VL with E27Q, I28K, L50Q, T53K, S56K
notes: Light chain CDR variant LC2 with tagged NVS4 heavy chain
B33: NVS4 light chain variant Y92F (Fab, V domains shown)
VH: B1 VH with N56D
VL: B1 VL with Y92F
notes: CDR variant of NVS4

The target of the assay is T1, human VEGF (human, UniProt P15692 207-395, biotinylated (site not stated)).
T1 construct: Biotinylated human VEGF generated internally; also called hVEGF; hVEGF-biotin
T1 sequence: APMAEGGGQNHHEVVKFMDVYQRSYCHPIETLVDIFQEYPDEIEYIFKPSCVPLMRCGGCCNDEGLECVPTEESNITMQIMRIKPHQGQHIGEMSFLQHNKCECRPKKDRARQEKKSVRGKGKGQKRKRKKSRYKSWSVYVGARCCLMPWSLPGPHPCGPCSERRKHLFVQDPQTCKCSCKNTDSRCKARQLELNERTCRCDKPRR
Description: Biacore SPR, hVEGF. (Surface plasmon resonance follows binding to a sensor surface in real time, without labels.)
B1 registered a Kd of 0.00765 nM, a koff of 4.84e-05 s⁻¹ and a kon of 6.33e+06 M⁻¹ s⁻¹.

B2 had a Kd of 0.0012 nM, a koff of 0.00016 s⁻¹ and a kon of 1.34e+08 M⁻¹ s⁻¹.

In the case of B3, the Kd turned out to be 0.0563 nM, the koff was 0.000119 s⁻¹ and the kon amounted to 2.11e+06 M⁻¹ s⁻¹.

Take B4: binding was put at a Kd of 0.08 nM, the koff is 0.00898 s⁻¹ and the kon was 1.12e+08 M⁻¹ s⁻¹.

The molecule B5 yielded a Kd of 0.0779 nM, a koff of 0.00854 s⁻¹ and a kon of 1.1e+08 M⁻¹ s⁻¹.

In turn, B6 showed a Kd of 0.0169 nM, a koff of 4.84e-05 s⁻¹ and a kon of 4.77e+06 M⁻¹ s⁻¹.

For the molecule B7, the Kd was 0.368 nM, the off-rate constant (koff) amounted to 0.000363 s⁻¹ and the kon worked out at 983000 M⁻¹ s⁻¹.

The molecule B8 showed a Kd of 0.0414 nM, a koff of 0.00456 s⁻¹ and a kon of 1.1e+08 M⁻¹ s⁻¹.

In the case of B9, the Kd came out at 0.593 nM, the koff was 0.000773 s⁻¹ and the kon is 1.3e+06 M⁻¹ s⁻¹.

B10 gave a Kd of 0.0499 nM, a koff of 0.00624 s⁻¹ and a kon of 1.25e+08 M⁻¹ s⁻¹.

For B11, binding was put at a Kd of 0.00985 nM, the koff was 5.73e-05 s⁻¹ and the kon worked out at 5.82e+06 M⁻¹ s⁻¹.

As for B12, the Kd was determined as 0.0311 nM, the koff turned out to be 0.000104 s⁻¹ and the on-rate constant (kon) was determined as 3.34e+06 M⁻¹ s⁻¹.

The molecule B13 displayed a Kd of 0.00534 nM, a koff of 3e-05 s⁻¹ and a kon of 5.62e+06 M⁻¹ s⁻¹.

In turn, B14 showed a Kd of 0.00549 nM, a koff of 2.57e-05 s⁻¹ and a kon of 4.68e+06 M⁻¹ s⁻¹.

In turn, B15 gave a Kd of 0.00435 nM, a koff of 0.000588 s⁻¹ and a kon of 1.35e+08 M⁻¹ s⁻¹.

The molecule B16 registered a Kd of 0.00993 nM, a koff of 0.000912 s⁻¹ and a kon of 9.18e+07 M⁻¹ s⁻¹.

B17 yielded a Kd of 0.554 nM, a koff of 0.186 s⁻¹ and a kon of 3.37e+08 M⁻¹ s⁻¹.

Molecule B18 returned a Kd of 0.0111 nM, a koff of 0.000862 s⁻¹ and a kon of 7.8e+07 M⁻¹ s⁻¹.

Turning to B19, the affinity, expressed as Kd, was 0.00149 nM; the koff worked out at 0.000135 s⁻¹; the kon was determined as 9.1e+07 M⁻¹ s⁻¹.

With B20, the Kd came out at 0.948 nM, the koff is 0.0026 s⁻¹ and the kon was 2.74e+06 M⁻¹ s⁻¹.

In the case of B21, the Kd came to 0.0355 nM, the koff was determined as 0.000149 s⁻¹ and the kon came out at 4.22e+06 M⁻¹ s⁻¹.

In turn, B22 yielded a Kd of 0.15 nM, a koff of 0.000445 s⁻¹ and a kon of 2.97e+06 M⁻¹ s⁻¹.

Consider B23, for which the Kd was determined as 0.0819 nM, the off-rate constant (koff) was determined as 0.000482 s⁻¹ and the kon stood at 5.88e+06 M⁻¹ s⁻¹.

Molecule B24 showed a Kd of 0.00282 nM, a koff of 1.3e-05 s⁻¹ and a kon of 4.6e+06 M⁻¹ s⁻¹.

Molecule B25 yielded a Kd of 0.00123 nM, a koff of 7.3e-05 s⁻¹ and a kon of 5.95e+07 M⁻¹ s⁻¹.

For B26, the Kd turned out to be 0.132 nM, the koff stood at 0.0014 s⁻¹ and the kon came to 1.06e+07 M⁻¹ s⁻¹.

With B27, the affinity, expressed as Kd, was 0.00244 nM; the koff amounted to 1.37e-05 s⁻¹; the kon came out at 5.6e+06 M⁻¹ s⁻¹.

B28 showed a Kd of 0.00668 nM, a koff of 4.54e-05 s⁻¹ and an on-rate constant (kon) of 6.8e+06 M⁻¹ s⁻¹.

The molecule B29 gave a Kd of 0.00379 nM, a koff of 0.000229 s⁻¹ and a kon of 6.06e+07 M⁻¹ s⁻¹.

Molecule B30 came in with a Kd of 0.0883 nM, a koff of 0.00852 s⁻¹ and a kon of 9.65e+07 M⁻¹ s⁻¹.

In turn, B31 registered a Kd of 0.00109 nM, a koff of 9.66e-05 s⁻¹ and a kon of 8.88e+07 M⁻¹ s⁻¹.

As for B32, binding was put at a Kd of 0.00133 nM, the koff was 0.000109 s⁻¹ and the on-rate (kon) was 8.18e+07 M⁻¹ s⁻¹.

Regarding B33, the Kd was determined as 0.0415 nM, the koff is 7.84e-05 s⁻¹ and the kon came out at 1.89e+06 M⁻¹ s⁻¹.
